B1: LRRC4B (498-576): LRRC4B ectodomain fragment, amino acids 498-576 of SEQ ID NO: 2 (protein)
chain: QPGEEALQPRGTEKEPPGPTTDGVWGGGRPGDAAGPASSSTTAPAPRSSRPTEKAFTVPITDVTENALKDLDDVMKTTK
B2: LRRC4B (453-576): LRRC4B ectodomain fragment, amino acids 453-576 of SEQ ID NO: 2; FLAG-tagged or hFc-fused (protein)
chain: VSAVDPVAAGGTGSGGGGPGGSGGVGGGSGGYTYFTTVTVETLETQPGEEALQPRGTEKEPPGPTTDGVWGGGRPGDAAGPASSSTTAPAPRSSRPTEKAFTVPITDVTENALKDLDDVMKTTK
modifications: FLAG tag or human Fc
notes: FLAG-tagged or hFc-fused

Target: binding of FAM19A5 protein to full-length ectodomain of the LRRC4B protein (amino acids 36-576 of SEQ ID NO: 2) (Homo sapiens, UniProt Q7Z5A7)
Test: Competitive inhibition assay, plate coated with full-length ectodomain of LRRC4B (amino acids 36-576)
Conditions: for inhibition of FAM19A5 binding to coated full-length LRRC4B ectodomain protein (in words): increasing concentrations, FAM19A5 5 ng/mL, 100 nM coat
Method in brief: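 Wells are coated with 100 nM LRRC4B ectodomain (aa 36-576), and 5 ng/mL recombinant FAM19A5 is added with competitor: LRRC4B deletion constructs at increasing concentrations, or synthetic peptides at 20 nM. After incubation at 37 °C, bound FAM19A5 is detected with HRP-conjugated anti-FAM19A5 (1-65) antibody.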

Chain of binding of FAM19A5 protein to full-length ectodomain of the LRRC4B protein (amino acids 36-576 of SEQ ID NO: 2) (Q7Z5A7 44-132): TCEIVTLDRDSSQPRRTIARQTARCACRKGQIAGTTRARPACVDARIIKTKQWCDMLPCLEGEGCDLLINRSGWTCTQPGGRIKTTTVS

Molecule	inhibition of interaction between FAM19A5 and the coated LRRC4B protein fragments (in words) (20 nM peptide, statement covers both coats, LRRC4B (36-576) and LRRC4B (453-576))	Inhibition rate (%) LRRC4B (amino acids 36-576)-hFc (Table 8, 20 nM peptide, FAM19A5 5 ng/ml)	Inhibition rate (%) LRRC4B (amino acids 36-576)-hFc (Table 9, deletion variants, 20 nM peptide, FAM19A5 5 ng/ml)	Inhibition rate (%) LRRC4B (amino acids 36-576)-hFc (Table 10, alanine/asparagine mutants)	inhibition of FAM19A5 binding to coated full-length LRRC4B ectodomain protein (in words)
GYTYFTTVTVETLETQPGEE [FB-20]	significantly decreased the interaction	77.0%	84.3%	77.0%	
B1					much inferior in their ability to inhibit the interaction
B2					able to inhibit FAM19A5 protein from binding
